Like-named read-outs stand apart in the source and are kept apart here.
Assays:
Arp2/3 complex (human) [1] = target: Arp2/3 complex (human) (UniProt P61158); experiment: SPR
Arp2/3 complex (human) [2] = target: Arp2/3 complex (human) (UniProt P61158); experiment: SPR; remark: listed apart in the source

Kd (Arp2/3 complex (human) [1]) | Kd (Arp2/3 complex (human) [2]) | Substance
48.9 µM | 14.1 µM | full-length Arpin (SEC fractions used in SPR) (from UniProt Q7Z6K5-1 1-226) (natural protein)
 | 63.1 µM | human Arpin with the double-site alanine substitution F95A/M97A (from UniProt Q7Z6K5-1 1-226) (natural protein)
 | 2.5 µM | GST-aCT (chimeric protein with Arpin's CT fused to the C-terminus of glutathione S-transferase through the spacer -GSSG-)
 | 17.8 µM | Arpin CT peptide (residues 192-226) (from UniProt Q7Z6K5-1 192-226)

— article doi:10.1101/2025.06.24.661301
